± gives the standard deviation of the averaged measurements.
B1: library; a variant is named by its letters at N, in order (parent)
chain: GCUGUCACCGAGAAACUGUGAAGUAUAUCUUAAACCUGGGCACUUAAAAGAUAUAUGGAGUUAGUAGUGCAACCUGCUCGGUCUGAUGAGUCCNNNNNNGGACGAAACAGC

What was measured:
[1] = variants of: B1; experiment: FACS-Seq fitted mean relative fluorescence mCherry/BFP without ligand (log10 relative fluorescence); HEK293T; ligand: cyclic di-GMP (c-di-GMP-II aptamer); higher = higher reporter protein expression; conditions: ligand present: no
Method in brief: (§1)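 With or without ligand for 48 h, enriched HEK293T libraries carrying a lentiviral ribozyme-switch mCherry reporter and EF1α-BFP were sorted into 6 mCherry/BFP bins. Bin genomic DNA was amplified by PCR, barcoded and sequenced on MiSeq. Fluorescence was taken from normal fits to the resulting bin counts. Each fitted mean of log10(mCherry/BFP) was scaled to five spiked-in control ribozymes.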

[2] = variants of: B1; experiment: normalized RNA/DNA level without ligand (relative to sTRSVctl = 100) (log10 (% of sTRSVctl)); HEK293T; ligand: cyclic di-GMP (c-di-GMP-II aptamer); higher = less ribozyme self-cleavage, higher mRNA level; conditions: reporter: mCherry (pCS4076), ligand present: no
Method in brief: (§2)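 For each 6-well well, 4 µg of library plasmid encoding mCherry-linked ribozyme switches, or eGFP-linked ones in some ligand experiments, was transfected into HEK293T. Any ligand was added 1 h before transfection, and RNA was extracted with EDTA 72 h after it, then reverse-transcribed, amplified, barcoded and sequenced. RNA level was obtained by dividing RNA reads by DNA reads, normalizing to a spiked-in non-cleaving sequence or to the top sequences, then scaling and log-transforming. The top set was 25 sequences, scaling was ×100 with log10, and ≥100 DNA reads were required.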

[3] = variants of: B1; experiment: FACS-Seq fitted mean relative fluorescence mCherry/BFP with ligand (log10 relative fluorescence); HEK293T; ligand: cyclic di-GMP (c-di-GMP-II aptamer); ligand concentration (+) FACS-Seq: 1 mM; higher = higher reporter protein expression; conditions: ligand present: yes
Method in brief: as §1

[4] = variants of: B1; experiment: normalized RNA/DNA level with ligand (relative to sTRSVctl = 100) (log10 (% of sTRSVctl)); HEK293T; ligand: cyclic di-GMP (c-di-GMP-II aptamer); ligand concentration (+) RNA-Seq: 1 mM; higher = less ribozyme self-cleavage, higher mRNA level; conditions: reporter: mCherry (pCS4076), ligand present: yes
Method in brief: as §2

Variant	FACS-Seq fitted mean (log10) [1]	normalized RNA/DNA level without ligand (log10) [2]	FACS-Seq fitted mean (log10) [3]	normalized RNA/DNA level with ligand (log10) [4]
UUGCGU	-0.322 ± 0.017	1.69 ± 0.035	-0.00149 ± 0.0032	1.86 ± 0.084
AUGUGU	-0.484 ± 0.16	1.53 ± 0.043	-0.314 ± 0.021	1.77 ± 0.11
CUCUAC	-0.26 ± 0.15	1.69 ± 0.038	-0.0375 ± 0.07	1.82 ± 0.11
CUCUAG	0.319 ± 0.13	1.764 ± 0.015	0.4467 ± 0.0016	1.83 ± 0.11
CUCUAU	-0.312 ± 0.034	1.61 ± 0.036	-0.00561 ± 0.064	1.77 ± 0.096
CUCUAA	-0.433 ± 0.11	1.4 ± 0.083	-0.0646 ± 0.21	1.61 ± 0.033
GUGUUG	-0.394 ± 0.069	1.59 ± 0.068	-0.183 ± 0.047	1.74 ± 0.12
GUGUUA	-0.147 ± 0.075	1.58 ± 0.027	0.207 ± 0.022	1.77 ± 0.092
GUGUUC	-0.72254 ± 0.00049	1.39 ± 0.14	-0.527 ± 0.032	1.57 ± 0.14
CUUAGC	-0.863 ± 0.058	1.79 ± 0.00046	-0.484 ± 0.043	1.88 ± 0.11
UUGACA	-0.91 ± 0.064	1.701 ± 0.0052	-0.508 ± 0.077	1.83 ± 0.14
CAAAAG		1.656 ± 0.0082		1.77 ± 0.14
GUCUGU	-0.165 ± 0.035	1.66 ± 0.044	0.0419 ± 0.17	1.81 ± 0.069
GUUAAG	-0.00319 ± 0.05	1.55 ± 0.05	0.189 ± 0.031	1.72 ± 0.098
GUUAAU	-0.336 ± 0.014	1.62 ± 0.041	-0.0912 ± 0.025	1.77 ± 0.067
UAAACC		1.77 ± 0.027		1.85 ± 0.076
CUUACA	-0.457 ± 0.02	1.55 ± 0.067	-0.154 ± 0.088	1.72 ± 0.077
AUGGAU	-0.631 ± 0.017	1.51 ± 0.057	-0.404 ± 0.012	1.67 ± 0.12
